Experimental data as given in publication PMC6703679.

Target: extracellular signal-regulated kinase (ERK1/2), endogenous in mouse spinal dorsal horn (mouse (endogenous in spinal dorsal horn)) (UniProt P63085)

B1: glycine receptor α1^ins subunit, endogenous in mouse spinal dorsal horn (receptor)
chain: ARSAPKPMSPSDFLDKLMGRTSGYDARIRPNFKGPPVNVSCNIFINSFGSIAETTMDYRVNIFLRQQWNDPRLAYNEYPDDSLDLDPSMLDSIWKPDLFFANEKGAHFHEITTDNKLLRISRNGNVLYSIRITLTLACPMDLKNFPMDVQTCIMQLESFGYTMNDLIFEWQEQGAVQVADGLTLPQFILKEEKDLRYCTKHYNTGKFTCIEARFHLERQMGYYLIQMYIPSLLIVILSWISFWINMDAAPARVGLGITTVLTMTTQSSGSRASLPKVSYVKAIDIWMAVCLLFVFSALLEYAAVNFVSRQHKELLRFRRKRRHHKSPMLNLFQDDEGGEGRFNFSAYGMGPACLQAKDGISVKGANNNNTTNPPPAPSKSPEEMRKLFIQRAKKIDKISRIGFPMAFLIFNMFYWIIYKIVRREDVHNK
How did the GlyR-IPSCs in spinal slices from formalin-injected mice, with bath application of TAT-pep-α1^ins (% of baseline) turn out when B1 was run?
The GlyR-IPSCs in spinal slices from formalin-injected mice, with bath application of TAT-pep-α1^ins (% of baseline) was 145.
